Starred links: 1 amine or outer side, 2 acyl side, 3 side chain; linkers in the order of their positions; H or OH if unused. Positions of bridges follow the written chain, without caps; N, C: chain ends. Non-standard residues stand in square brackets, D forms with d. Primed or numbered codes have the meaning given here. No end group written: not given here. *: point of attachment. Aph(CCprAc) = 4-aminophenylalanine acylated on the ring amine with 1-cyano-1-cyclopropanecarboxylic acid, N#CC1(C(=O)Nc2ccc(C[C@H](N[*:1])C(=O)[*:2])cc2)CC1; Aph(SaPr) = 4-amino-L-phenylalanine, ring amine acylated by 3-sulfamoylpropanoic acid, NS(=O)(=O)CCC(=O)Nc1ccc(C[C@H](N[*:1])C(=O)[*:2])cc1; Aph(Iva) = 4-aminophenylalanine acylated on the ring amine with isovaleric acid, CC(C)CC(=O)Nc1ccc(C[C@H](N[*:1])C(=O)[*:2])cc1; Aph(FAc) = 4-aminophenylalanine acylated on the ring amine with fluoroacetic acid, O=C(CF)Nc1ccc(C[C@H](N[*:1])C(=O)[*:2])cc1; Aph(Prp) = 4-aminophenylalanine acylated on the ring amine with propionic acid, CCC(=O)Nc1ccc(C[C@H](N[*:1])C(=O)[*:2])cc1; 3MeBn = 3-methylbenzylidene (m-xylene unit) bridging two Cys S atoms via thioethers, from alpha,alpha'-dibromo-m-xylene; Af3(DkpAc) = 3-amino-L-phenylalanine acylated on the ring amine with 2-(3,6-dioxopiperazin-2-yl)acetic acid; DOTA(Lu) = O=C1CN2CCN3CCN(CC(=O)*)CCN(CC2)CC(=O)[O][Lu]([O]1)[O]C(=O)C3; Phe(3-NHCO(CH2)3SO2NH2) = N[C@@H](Cc1cccc(NC(=O)CCCS(N)(=O)=O)c1)C(=O)O; APAc″ = 2-(4-(amino)piperidin-1-yl)acetic acid, NC1CCN(CC(=O)*)CC1; DOTA = O=C(O)CN1CCN(CC(=O)O)CCN(CC(=O)*)CCN(CC(=O)O)CC1; Acetyl(2-(piperazin-1-yl)) = O=C(CN1CCNCC1)*; mXylylene = c1cc(C[*:1])cc(C[*:2])c1; N6iQui = not defined here; Dap = NC[C@H](N)C(=O)O
B1: 3BP-4555: LuDOTA-PPAc-Gln-[Cys(3MeBn)-Glu-pro-Asp-Af3(Cpsu)-Leu-Thr-Trp-Ser-Cys]-NH2 (peptide)
peptide: QCE[dP]D[Phe(3-NHCO(CH2)3SO2NH2)]LTWSC-NH2
modifications: linker 2-11 via mXylylene; not fully specified (N-terminus); printed as LuDOTA-PPAc-Gln-[Cys(3MeBn)-Glu-pro-Asp-Af3(Cpsu)-Leu-Thr-Trp-Ser-Cys]-NH2; also: lutetium complexed in DOTA
notes: also called natLu-DPI-4452
B2: 3BP-4452: DOTA-PPAc-Gln-[Cys(3MeBn)-Glu-pro-Asp-Af3(Cpsu)-Leu-Thr-Trp-Ser-Cys]-NH2 (peptide)
peptide: {DOTA-Acetyl(2-(piperazin-1-yl))}-QCE[dP]D[Phe(3-NHCO(CH2)3SO2NH2)]LTWSC-NH2
modifications: linker 2-11 via 3MeBn
notes: Cyclic peptide with uncomplexed DOTA; also called DPI-4452
B3: 3BP-4501: DOTA-Gln-[Cys(3MeBn)-Glu-pro-Asp-Aph(SaPr)-Leu-Thr-Trp-Ser-Cys]-NH2 (peptide)
peptide: {DOTA}-QCE[dP]D[Aph(SaPr)]LTWSC-NH2
modifications: linker 2-11 via mXylylene
SMILES: CC(C)C[C@@H]1NC(=O)[C@H](Cc2ccc(NC(=O)CCS(N)(=O)=O)cc2)NC(=O)[C@H](CC(=O)O)NC(=O)[C@H]2CCCN2C(=O)[C@H](CCC(=O)O)NC(=O)[C@@H](NC(=O)[C@H](CCC(N)=O)NC(=O)CN2CCN(CC(=O)O)CCN(CC(=O)O)CCN(CC(=O)O)CC2)CSCc2cccc(c2)CSC[C@@H](C(N)=O)NC(=O)[C@H](CO)NC(=O)[C@H](Cc2c[nH]c3ccccc23)NC(=O)[C@H]([C@@H](C)O)NC1=O
notes: Cyclic peptide with uncomplexed DOTA; also called DPI-4501
B4: 3BP-4174: DOTA-APAc-Val-{Asp-[Cys(3MeBn)-Glu-pro-Asp-Trp-Leu-Thr-Trp-Dap}-Cys]-NH2 (peptide)
peptide: {DOTA-APAc″}-VDCE[dP]DWLTW[Dap]C-NH2
modifications: lactam 2-11; linker 3-12 via mXylylene
notes: Bicyclic peptide with uncomplexed DOTA; also called DPI-4174
B5: 3BP-3583: DOTA-APAc-Val-Tyr-[Cys(3MeBn)-Glu-pro-Asp-Trp-Leu-Thr-Trp-Ser-Cys]-NH2 (peptide)
peptide: {DOTA-APAc″}-VYCE[dP]DWLTWSC-NH2
modifications: linker 3-12 via mXylylene
notes: Cyclic peptide with uncomplexed DOTA; also called DPI-3583
B6: 3BP-4503: DOTA-{Glu-[Cys(3MeBn)-Glu-pro-Asp-Af3(Cpsu)-Leu-Thr-Trp-Dap}-Cys]-NH2 (peptide)
peptide: {DOTA}-ECE[dP]D[Phe(3-NHCO(CH2)3SO2NH2)]LTW[Dap]C-NH2
modifications: lactam 1-10; linker 2-11 via mXylylene
notes: Bicyclic peptide with uncomplexed DOTA; also called DPI-4503

Target: T1, human carbonic anhydrase 4 (CAIV), biotinylated (Sino Biological Cat #10472-H08H) (human, UniProt P22748 19-283, biotinylated (sites not given))
T1 construct: Bought protein, biotinylated and captured with the Biotin CAPture Kit; also called hCAIV-bio; carbonic anhydrase IV
T1 sequence (P22748 19-283 limits assumed): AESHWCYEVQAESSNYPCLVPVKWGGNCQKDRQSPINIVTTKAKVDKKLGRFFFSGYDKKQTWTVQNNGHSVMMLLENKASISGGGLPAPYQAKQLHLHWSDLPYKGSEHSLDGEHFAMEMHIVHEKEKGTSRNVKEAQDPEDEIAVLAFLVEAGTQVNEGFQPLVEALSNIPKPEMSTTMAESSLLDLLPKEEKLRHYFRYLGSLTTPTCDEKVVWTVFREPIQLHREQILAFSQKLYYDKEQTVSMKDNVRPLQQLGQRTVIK
Assay: SPR (Biacore T200), biotinylated CAIV captured with Biotin CAPture Kit; limit of the category in which no binding is told

Binder	pKD
B1	< 6
B2	< 6
B3	< 6
B4	< 6
B5	< 6
{DOTA(Lu)}-QCE[dP]D[Aph(SaPr)]LTWSC-NH2 (linker 2-11 via mXylylene; also: DOTA complexing non-radioactive lutetium, also called natLu-3BP-4501) [3BP-4581: LuDOTA-Gln-[Cys(3MeBn)-Glu-pro-Asp-Aph(SaPr)-Leu-Thr-Trp-Ser-Cys]-NH2]	< 6
B6	< 6

Target: T2, human carbonic anhydrase 12 (CAXII), biotinylated (Sino Biological Cat #10617-H08H) (human, UniProt O43570 25-301, biotinylated (sites not given))
T2 construct: Bought protein, biotinylated and captured with the Biotin CAPture Kit; also called hCAXII-bio; carbonic anhydrase XII
T2 sequence (O43570 25-301 limits assumed): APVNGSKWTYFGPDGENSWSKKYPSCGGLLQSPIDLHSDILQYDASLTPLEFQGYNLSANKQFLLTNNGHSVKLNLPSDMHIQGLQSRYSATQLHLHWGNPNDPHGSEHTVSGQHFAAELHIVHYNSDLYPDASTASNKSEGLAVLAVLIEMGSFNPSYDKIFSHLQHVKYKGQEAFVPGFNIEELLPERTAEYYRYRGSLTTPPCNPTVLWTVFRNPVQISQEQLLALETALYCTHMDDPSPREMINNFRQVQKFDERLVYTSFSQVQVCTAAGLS
Assay: SPR (Biacore T200), biotinylated CAXII captured with Biotin CAPture Kit; limit of the category in which no binding is told

Binder	pKD
B1	< 6
B2	< 6
B3	< 6
B4	< 6
B5	< 6
{DOTA(Lu)}-QCE[dP]D[Aph(SaPr)]LTWSC-NH2 (linker 2-11 via mXylylene; also: DOTA complexing non-radioactive lutetium, also called natLu-3BP-4501) [3BP-4581: LuDOTA-Gln-[Cys(3MeBn)-Glu-pro-Asp-Aph(SaPr)-Leu-Thr-Trp-Ser-Cys]-NH2]	< 6
B6	< 6

Target: human carbonic anhydrase 9 (CAIX) (human, UniProt Q16790 38-459)
Assay: FACS competition on HT-29 cells, competitor tracer 3BP-4149; category C = pIC50 6.1-7.0
Procedure: CAIX-expressing human HT-29 colorectal cancer cells (DSMZ, RRID: CVCL_0320) were cultured in McCoys's 5A modified medium (Biochrom, #F1015) including 10% fetal calf serum (FCS), 2 mM L-glutamine, 100 U/ml penicillin and 100 μg/mL streptomycin. Cells were detached with Accutase (Biolegend, #423201) and washed in FACS buffer (PBS including 1% FCS). Cells were diluted in FACS buffer to a final concentration of 500.000 cells per ml. 200 μL of the cell suspension were transferred to a u-shaped non-binding 96-well plate (Greiner) and cells were washed in ice-cold FACS buffer.
When biotinylated compounds were used an additional incubation step with 1 μg/mL APC-Streptavidin (Miltenyi; #130-106-791) in 50 μL FACS buffer for 30 minutes on ice was performed.
Cells were washed twice with ice-cold FACS buffer and analyzed in an Attune NxT flow cytometer (Thermo Fisher). Median fluorescence intensities (MFI) of the APC/Cy5-channel were calculated by Attune NxT software.

Binder	pIC50
{DOTA-APAc″}-VYCE[dP]E(N6iQui)WLTWSC-NH2 (linker 3-12 via mXylylene; reading uncertain) [3BP-4328]	6.1 to 7 pic50
{DOTA-APAc″}-VYCE[dP]D[Aph(FAc)]LTWSC-NH2 (linker 3-12 via mXylylene) [3BP-4358]	6.1 to 7 pic50
{DOTA-APAc″}-VYCE[dP]D[Aph(Iva)]LTWSC-NH2 (linker 3-12 via mXylylene) [3BP-4348]	6.1 to 7 pic50
{DOTA-APAc″}-VYCE[dP]D[Af3(DkpAc)]LTWSC-NH2 (linker 3-12 via mXylylene) [3BP-4288]	6.1 to 7 pic50
{DOTA-APAc″}-VYCE[dP]D[Aph(CCprAc)]LTWSC-NH2 (linker 3-12 via mXylylene) [3BP-4357]	6.1 to 7 pic50
{DOTA-APAc″}-VYCE[dP]D[Aph(Prp)]LTWSC-NH2 (linker 3-12 via mXylylene) [3BP-4347]	6.1 to 7 pic50

Target: T3, human carbonic anhydrase 14 (CAXIV), biotinylated (Sino Biological Cat #10458-H08H) (human, UniProt Q9ULX7 16-290, biotinylated (sites not given))
T3 construct: Bought protein, biotinylated and captured with the Biotin CAPture Kit; also called hCAXIV-bio; carbonic anhydrase XIV
T3 sequence (Q9ULX7 16-290 limits assumed): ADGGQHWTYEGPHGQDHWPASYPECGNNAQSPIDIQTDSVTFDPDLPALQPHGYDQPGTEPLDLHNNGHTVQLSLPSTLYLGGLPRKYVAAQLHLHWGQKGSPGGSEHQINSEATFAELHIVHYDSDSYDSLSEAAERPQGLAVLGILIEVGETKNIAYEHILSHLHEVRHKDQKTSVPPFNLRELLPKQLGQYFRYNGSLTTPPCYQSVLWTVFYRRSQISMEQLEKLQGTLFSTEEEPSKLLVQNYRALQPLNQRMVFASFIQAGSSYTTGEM
Assay: SPR (Biacore T200), biotinylated CAXIV captured with Biotin CAPture Kit; limit of the category in which no binding is told

Binder	pKD
B1	< 6
B2	< 6
B3	< 6
B4	< 6
B5	< 6
{DOTA(Lu)}-QCE[dP]D[Aph(SaPr)]LTWSC-NH2 (linker 2-11 via mXylylene; also: DOTA complexing non-radioactive lutetium, also called natLu-3BP-4501) [3BP-4581: LuDOTA-Gln-[Cys(3MeBn)-Glu-pro-Asp-Aph(SaPr)-Leu-Thr-Trp-Ser-Cys]-NH2]	< 6
B6	< 6
